# From US20060263345A1, “Butyrylcholinesterase variant polypeptides with increased catalytic efficiency and methods of use” (priority 2003, published 2006)
# Residue numbers refer to the chain shown, from its start. Names and notes keep the numbering of the source. “Also recorded” adds a separate entry of the source.
# B1: Y332S (protein)
# chain: EDDIIIATKNGKVRGMNLTVFGGTVTAFLGIPYAQPPLGRLRFKKPQSLTKWSDIWNATKYANSCCQNIDQSFPGFHGSEMWNPNTDLSEDCLYLNVWIPAPKPKNATVLIWIYGGGFQTGTSSLHVYDGKFLARVERVIVVSMNYRVGALGFLALPGNPEAPGNMGLFDQQLALQWVQKNIAAFGGNPKSVTLFGESAGAASVSLHLLSPGSHSLFTRAILQSGSFNAPWAVTSLYEARNRTLNLAKLTGCSRENETEIIKCLRNKDPQEILLNEAFVVPYGTPLSVNFGPTVDGDFLTDMPDILLELGQFKKTQILVGVNKDEGTAFLVSGAPGFSKDNNSIITRKEFQEGLKIFFPGVSEFGKESILFHYTDWVDDQRPENYREALGDVVGDYNFICPALEFTKKFSEWGNNAFFYYFEHRSSKLPWPEWMGVMHGYEIEFVFGLPLERRDNYTKAEEILSRSIVKRWANFAKYGNPNETQNNSTSWPVFKSTEQKYLTLNTESTRIMTKLRAQQCRFWTSFFPKVLEMTGNIDEAEWEWKAGFHRWNNYMMDWKNQFNDYTSKKESCVGL
# modifications: Butyrylcholinesterase variant
# B2: F227T (protein)
# chain: B1 chain with F227T, S332Y
# modifications: Butyrylcholinesterase variant
# B3: A328W/Y332S (protein)
# chain: B1 chain with A328W
# modifications: Butyrylcholinesterase variant
# B4: Y332M (protein)
# chain: B1 chain with S332M
# modifications: Butyrylcholinesterase variant
# B5: V331L (protein)
# chain: B1 chain with V331L, S332Y
# modifications: Butyrylcholinesterase variant
# B6: F227C (protein)
# chain: B1 chain with F227C, S332Y
# modifications: Butyrylcholinesterase variant
# B7: A328W/S287G/F227A (protein)
# chain: B1 chain with F227A, S287G, A328W, S332Y
# modifications: Butyrylcholinesterase variant
# B8: A328W/S287G/A199S (protein)
# chain: B1 chain with A199S, S287G, A328W, S332Y
# modifications: Butyrylcholinesterase variant
# B9: F227P (protein)
# chain: B1 chain with F227P, S332Y
# modifications: Butyrylcholinesterase variant
# B10: A199S (protein)
# chain: B1 chain with A199S, S332Y
# modifications: Butyrylcholinesterase variant
# B11: Y332P (protein)
# chain: B1 chain with S332P
# modifications: Butyrylcholinesterase variant
# B12: A328W/Y332M (protein)
# chain: B1 chain with A328W, S332M
# modifications: Butyrylcholinesterase variant
# B13: A328W/Y332P (protein)
# chain: B1 chain with A328W, S332P
# modifications: Butyrylcholinesterase variant
# B14: A328W/S287G/F227A/A199S (protein)
# chain: B1 chain with A199S, F227A, S287G, A328W, S332Y
# modifications: Butyrylcholinesterase variant
# B15: F227M (protein)
# chain: B1 chain with F227M, S332Y
# modifications: Butyrylcholinesterase variant
# B16: F227G (protein)
# chain: B1 chain with F227G, S332Y
# modifications: Butyrylcholinesterase variant
# B17: F227A (protein)
# chain: B1 chain with F227A, S332Y
# modifications: Butyrylcholinesterase variant
# B18: A328W/V331L (protein)
# chain: B1 chain with A328W, V331L, S332Y
# modifications: Butyrylcholinesterase variant
# B19: A328W/Y332M/S287G/F227A/A199S (protein)
# chain: B1 chain with A199S, F227A, S287G, A328W, S332M
# modifications: Butyrylcholinesterase variant
# B20: F227S (protein)
# chain: B1 chain with F227S, S332Y
# modifications: Butyrylcholinesterase variant
# Assay: microtiter isotope tracer [3H]-cocaine hydrolysis assay of immobilized butyrylcholinesterase variants
# Assay type: biochemical
# Details: for cocaine hydrolysis activity compared to butyrylcholinesterase (in words): compared to human butyrylcholinesterase; for increase in cocaine hydrolysis activity relative to butyrylcholinesterase: compared to human butyrylcholinesterase SEQ ID NO: 44, approximate values; for Relative Activity of butyrylcholinesterase variants (WT = 1) with enhanced cocaine hydrolase activity: relative to wild-type = 1, catalytic efficiency (Vmax/Km), [3H]-cocaine microtiter assay
# From the text: At the conclusion of the isotope tracer assay, an aliquot of the reaction mix is acidified in order to take advantage of the solubility difference between the product and the substrate at pH 3.0. […] Prospect, Ill.) while [3H]-cocaine is not.
# The supernatants isolated from each of the butyrylcholinesterase variant library clones contains variable butyrylcholinesterase enzyme concentrations.
# At least three approaches are used to either increase the assay sensitivity or the assay signal.
# Km values for (−)-cocaine are determined at 37° C. Vmax and Km values are calculated using Sigma Plot (Jandel Scientific, San Rafael, Calif.). The number of active sites of butyrylcholinesterase is determined by the method of residual activity using echothiopate iodide or diisopropyl fluorophosphates as titrants, as described previously by Masson et al., Biochemistry 36: 2266-2277 (1997). […] Purified human butyrylcholinesterase is used as the standard for the ELISA quantitation assay. The catalytic rate constant, kcat, is calculated by dividing Vmax by the concentration of active sites.
Molecule,cocaine hydrolysis activity compared to butyrylcholinesterase (in words),increase in cocaine hydrolysis activity relative to butyrylcholinesterase,Relative Activity of butyrylcholinesterase variants (WT = 1) with enhanced cocaine hydrolase activity,further results
B1,increased cocaine hydrolysis activity,,,cocaine hydrolysis activity compared to butyrylcholinesterase (in words) (listed as SEQ ID NO: 20): increased cocaine hydrolysis activity; cocaine hydrolysis activity compared to butyrylcholinesterase (in words) (listed as Y322S): enhanced cocaine hydrolase activity
B2,enhanced cocaine hydrolase activity,two,1.9,
B3,enhanced cocaine hydrolase activity,seven,8,increase in cocaine hydrolysis activity relative to butyrylcholinesterase (listed as SEQ ID NO: 8): eight
B4,enhanced cocaine hydrolase activity; also recorded: increased cocaine hydrolysis activity,,,cocaine hydrolysis activity compared to butyrylcholinesterase (in words) (listed as SEQ ID NO: 22): increased cocaine hydrolysis activity
B5,enhanced cocaine hydrolase activity; also recorded: increased cocaine hydrolysis activity,,,cocaine hydrolysis activity compared to butyrylcholinesterase (in words) (listed as SEQ ID NO: 26): increased cocaine hydrolysis activity
B6,enhanced cocaine hydrolase activity,two,1.9,
B7,enhanced cocaine hydrolase activity,ninety-one,91,
B8,enhanced cocaine hydrolase activity,ninety-seven,97,
B9,enhanced cocaine hydrolase activity,three,2.9,
B10,enhanced cocaine hydrolase activity,two-and-a-half,2.5,
B11,enhanced cocaine hydrolase activity; also recorded: increased cocaine hydrolysis activity,,,cocaine hydrolysis activity compared to butyrylcholinesterase (in words) (listed as SEQ ID NO: 24): increased cocaine hydrolysis activity
B12,enhanced cocaine hydrolase activity,twenty-four,24,
B13,enhanced cocaine hydrolase activity,ten,10,
B14,enhanced cocaine hydrolase activity,one-hundred,100,
B15,enhanced cocaine hydrolase activity,one-and-a-half,1.4,
B16,enhanced cocaine hydrolase activity,four,4.0,
B17,enhanced cocaine hydrolase activity,four,4.1,
B18,enhanced cocaine hydrolase activity,sixteen,16,
B19,enhanced cocaine hydrolase activity,one-hundred,100,
B20,enhanced cocaine hydrolase activity,two,2.3,
